B1: Transmembrane glycoprotein NMB (Homo sapiens), Q14956-1 (parent)
chain: MECLYYFLGFLLLAARLPLDAAKRFHDVLGNERPSAYMREHNQLNGWSSDENDWNEKLYPVWKRGDMRWKNSWKGGRVQAVLTSDSPALVGSNITFAVNLIFPRCQKEDANGNIVYEKNCRNEAGLSADPYVYNWTAWSEDSDGENGTGQSHHNVFPDGKPFPHHPGWRRWNFIYVFHTLGQYFQKLGRCSVRVSVNTANVTLGPQLMEVTVYRRHGRAYVPIAQVKDVYVVTDQIPVFVTMFQKNDRNSSDETFLKDLPIMFDVLIHDPSHFLNYSTINYKWSFGDNTGLFVSTNHTVNHTYVLNGTFSLNLTVKAAAPGPCPPPPPPPRPSKPTPSLATTLKSYDSNTPGPAGDNPLELSRIPDENCQINRYGHFQATITIVEGILEVNIIQMTDVLMPVPWPESSLIDFVVTCQGSIPTEVCTIISDPTCEITQNTVCSPVDVDEMCLLTVRRTFNGSGTYCVNLTLGDDTSLALTSTLISVPDRDPASPLRMANSALISVGCLAIFVTVISLLVYKKHKEYNPIENSPGNVVRSKGLSVFLNRAKAVFFPGNQEKDPLLKNQEFKGVS

This test covers variants of B1. As to conditions: with ptk6_human PTK6, Q13882.
As to MECLYYFLGFLLLAARLPLDAAKRFHDVLGNERPSAYMREHNQLNGWSSDENDWNEKLYPVWKRGDMRWKNSWKGGRVQAVLTSDSPALVGSNITFAVNLIFPRCQKEDANGNIVYEKNCRNEAGLSADPYVYNWTAWSEDSDGENGTGQSHHNVFPDGKPFPHHPGWRRWNFIYVFHTLGQYFQKLGRCSVRVSVNTANVTLGPQLMEVTVYRRHGRAYVPIAQVKDVYVVTDQIPVFVTMFQKNDRNSSDETFLKDLPIMFDVLIHDPSHFLNYSTINYKWSFGDNTGLFVSTNHTVNHTYVLNGTFSLNLTVKAAAPGPCPPPPPPPRPSKPTPSLATTLKSYDSNTPGPAGDNPLELSRIPDENCQINRYGHFQATITIVEGILEVNIIQMTDVLMPVPWPESSLIDFVVTCQGSIPTEVCTIISDPTCEITQNTVCSPVDVDEMCLLTVRRTFNGSGTYCVNLTLGDDTSLALTSTLISVPDRDPASPLRMANSALISVGCLAIFVTVISLLVYKKHKEFNPIENSPGNVVRSKGLSVFLNRAKAVFFPGNQEKDPLLKNQEFKGVS [Y525F], the “effect of a mutation on the interaction” value is “disrupting interaction strength”.
